B1: Pistol ribozyme (parent)
chain: GGGUCGUUGUUCCAUAAUCGCGUGGAUAUGGCACGCAAGUUUCUACCGGGCACCGUAAAUGUCCGACUGGAGCCGUUCGGGCGGCUAUAAACAGACCUCAGGCCCGAAGCGUGGCGGCACCUGCCGCCGGUGGUAAAAAAGAUCGGAAGAGCACACGUCU

Variants of: B1
Experiment: aptazyme ON/OFF ratio, guanine; higher = stronger switching; co-transcriptional cleavage with and without guanine

Variant	aptazyme ON/OFF ratio
U7G U8C G9U U10C U11A C12U C13A	1.72
U7G U8C G9U U10A U11C C12G C13G	1.05
U7G U8C G9U U10A U11C C12G C13U	1.31
U7G U8C G9U U10A U11C C12G C13A	1.14
U7G U8C G9C U10C U11A C12G C13U	1.12
U7G U8C G9C U10C U11A C12G C13A	1.2
U7G U8C G9C U10C U11A C12G C13G	1.17
U7G U8C G9C U10A U11A C12G C13A	1.1
U7G U8C G9C U10A U11A C12G C13G	1.11
U7G U8C G9C U10A U11A C12G C13U	1.13
U7G U8C G9C U11A C13A	1.09
U7G U8C G9C U11A C13G	1.06
U7G U8C G9C U11A C13U	1.18
U7G U8C G9C U10G U11G C13G	1.12
U7G U8C G9C U10G U11G C13U	1.06
U7G U8C G9C U10G U11G C13A	1.1
U7G U8C G9C U11C C12G C13G	1.07
U7G U8C G9C U11C C12G C13U	1.11
U7G U8C G9C U11C C12G C13A	1.2
U7G U8C G9C U10C C12A C13U	1.04
U7G U8C G9C U10C C12A C13G	1.1
U7G U8C G9C U10C C12A C13A	1.08
U7G U8C G9C U10C U11A C12A C13G	1.09
U7G U8C G9C U10C U11A C12A C13U	1.04

Variant	aptazyme ON/OFF ratio
U7G U8C G9C U10C U11A C12A C13A	1.04
U7G U8C G9C U10C U11C C13G	1.36
U7G U8C G9C U10C U11C C13A	1.04
U7G U8C G9C U10C U11C C13U	0.999
U7G U8C G9C U10C C12U C13A	1.07
U7G U8C G9C U10C C12U C13U	1.04
U7G U8C G9C U10C C12U C13G	1.13
U7G U8C G9C U10C U11G C13G	1.14
U7G U8C G9C U10C U11G C13A	1.07
U7G U8C G9C U10C U11G C13U	1.07
U7G U8C G9U U10C C13U	1.47
U7G U8C G9U U10C C13G	1.12
U7G U8C G9U U10C C13A	1.37
U7G U8C G9C U10A U11G C13G	1.15
U7G U8C G9C U10A U11G C13U	1.18
U7G U8C G9C U10A U11G C13A	1.14
U7G U8C G9U C12U	4.27
U7G U8C G9U C12G	3.03
U7G U8C G9U C12A	1.35
U7G U8C G9U U10C U11A C12G C13U	1.2
U7G U8C G9U U10C U11A C12G C13G	1.31
U7G U8C G9U U10C U11A C12G C13A	1.39
U7G U8C G9C U10G U11A C13A	1.05
U7G U8C G9C U10G U11A C13U	1.05

Variant	aptazyme ON/OFF ratio
U7G U8C G9C U10G U11A C13G	1.19
U7G U8C G9C U10C C13G	1.21
U7G U8C G9C U10C C13A	1.06
U7G U8C G9C U10C C13U	1.15
U7G U8C G9U U10C U11A C13U	1.79
U7G U8C G9U U10C U11A C13G	1.06
U7G U8C G9U U10C U11A C13A	1.49
U7G U8C G9U U10A	4.06
U7G U8C G9U U10C	1.64
U7G U8C G9U U10A U11G C12U C13U	1.16
U7G U8C G9U U10A U11G C12U C13G	1.11
U7G U8C G9U U10A U11G C12U C13A	1.2
U7G U8C G9C U10A U11G C12U C13G	1.24
U7G U8C G9C U10A U11G C12U C13A	1.22
U7G U8C G9C U10A U11G C12U C13U	1.17
U7G U8C G9C U10C	1.92
U7G U8C G9C U10G	1.17
U7G U8C G9C U10G U11G C12G C13U	1.09
U7G U8C G9C U10G U11G C12G C13G	1.08
U7G U8C G9C U10G U11G C12G C13A	1.06
U7G U8C G9U C13U	2.37
U7G U8C G9U C13A	1.36
U7G U8C G9U C13G	1.04
U7G U8C G9C U10A U11C C12G	1.26

Variant	aptazyme ON/OFF ratio
U7G U8C G9C U10A U11C C12A	1.33
U7G U8C G9C U10A U11C C12U	1.32
U7G U8C G9C U10G U11A C12A C13G	1.11
U7G U8C G9C U10G U11A C12A C13U	1.25
U7G U8C G9C U10G U11A C12A C13A	1.1
U7G U8C G9U U10A U11C C12U	1.72
U7G U8C G9U U10A U11C C12G	1.26
U7G U8C G9U U10A U11C C12A	2.56
U7G U8C G9U U10A U11G C12G	1.19
U7G U8C G9U U10A U11G C12U	1.33
U7G U8C G9U U10A U11G C12A	1.12
U7G U8C G9U U10A U11G C13U	1.38
U7G U8C G9U U10A U11G C13A	1.14
U7G U8C G9U U10A U11G C13G	1.1
U7G U8C G9C U10C C12G C13G	1.11
U7G U8C G9C U10C C12G C13U	1.08
U7G U8C G9C U10C C12G C13A	1.14
U7G U8C G9C U10A U11A C12A C13U	1.11
U7G U8C G9C U10A U11A C12A C13G	1.09
U7G U8C G9C U10A U11A C12A C13A	1.12
U7G U8C G9C U10C U11A C13A	1.04
U7G U8C G9C U10C U11A C13U	1.03
U7G U8C G9C U10C U11A C13G	1.11
U7G U8C G9C U10A U11C C12A C13U	1.27

Variant	aptazyme ON/OFF ratio
U7G U8C G9C U10A U11C C12A C13A	1.28
U7G U8C G9C U10A U11C C12A C13G	1.19
U7G U8C G9C U11G	1.33
U7G U8C G9C U11A	2.39
U7G U8C G9C U11C	1.87
U7G U8C G9C U10A U11G C12A	1.08
U7G U8C G9C U10A U11G C12U	1.26
U7G U8C G9C U10A U11G C12G	1.17
U7G U8C G9C U10C U11A C12G	1.11
U7G U8C G9C U10C U11A C12A	1.06
U7G U8C G9C U10C U11A C12U	1.06
U7G U8C G9C U10G U11C C13G	1.36
U7G U8C G9C U10G U11C C13U	1.34
U7G U8C G9C U10G U11C C13A	1.15
U7G U8C G9C U10G U11G C12A	1.17
U7G U8C G9C U10G U11G C12G	1.13
U7G U8C G9C U10G U11G C12U	1.06
U7G U8C G9U U10A C12A C13G	1.17
U7G U8C G9U U10A C12A C13U	1.24
U7G U8C G9U U10A C12A C13A	1.18
U7G U8C G9U U10A U11G C12A C13U	1.11
U7G U8C G9U U10A U11G C12A C13G	1.09
U7G U8C G9U U10A U11G C12A C13A	1.1
U7G U8C G9C U10G U11A C12G C13U	1.1

Variant	aptazyme ON/OFF ratio
U7G U8C G9C U10G U11A C12G C13G	1.21
U7G U8C G9C U10G U11A C12G C13A	1.07
U7G U8C G9C U10G U11C C12A C13G	1.18
U7G U8C G9C U10G U11C C12A C13A	1.34
U7G U8C G9C U10G U11C C12A C13U	1.36
U7G U8C G9U U10A C12U	2.85
U7G U8C G9U U10A C12A	1.88
U7G U8C G9U U10A C12G	1.77
U7G U8C G9C U11A C12A C13A	1.11
U7G U8C G9C U11A C12A C13G	1.14
U7G U8C G9C U11A C12A C13U	1.13
U7G U8C G9U U10A U11A C12A C13U	1.32
U7G U8C G9U U10A U11A C12A C13A	1.29
U7G U8C G9U U10A U11A C12A C13G	1.11
U7G U8C G9C U10G C13G	1.26
U7G U8C G9C U10G C13U	1.33
U7G U8C G9C U10G C13A	1.3
U7G U8C G9U U10C C12G	1.87
U7G U8C G9U U10C C12U	1.12
U7G U8C G9U U10C C12A	2.08
U7G U8C G9U U10C C12U C13U	1.26
U7G U8C G9U U10C C12U C13G	1.24
U7G U8C G9U U10C C12U C13A	1.35
U7G U8C G9C U10C C12G	1.1

Variant	aptazyme ON/OFF ratio
U7G U8C G9C U10C C12U	1.16
U7G U8C G9C U10C C12A	1.13
U7G U8C G9C U10C U11G C12A C13U	1.1
U7G U8C G9C U10C U11G C12A C13G	1.09
U7G U8C G9C U10C U11G C12A C13A	1.19
U7G U8C G9U U10A U11C C12A C13G	1.33
U7G U8C G9U U10A U11C C12A C13U	1.59
U7G U8C G9U U10A U11C C12A C13A	1.28
U7G U8C G9U U10A U11A C12U C13G	1.16
U7G U8C G9U U10A U11A C12U C13A	1.23
U7G U8C G9U U10A U11A C12U C13U	1.33
U7G U8C G9C U11G C12A	1.39
U7G U8C G9C U11G C12U	1.66
U7G U8C G9C U11G C12G	1.07
U7G U8C G9C U11A C12G C13G	1.16
U7G U8C G9C U11A C12G C13A	1.13
U7G U8C G9C U11A C12G C13U	1.1
U7G U8C G9U U10C U11A C12G	1.98
U7G U8C G9U U10C U11A C12U	2.96
U7G U8C G9U U10C U11A C12A	2.7
U7G U8C G9C U10A U11A C12U C13A	1.07
U7G U8C G9C U10A U11A C12U C13U	1.08
U7G U8C G9C U10A U11A C12U C13G	1.09

Source: the RNAGym collection of RNA variant scans (doi:10.1021/acssynbio.7b00057)
